The record followed here is PMC7437983 (Traffic (Copenhagen, Denmark), 2020).

The assay addresses Nup358-min-GST, human Nup358 residues 2148-2240 (human, UniProt P49792 2148-2240). Nature of the assay: pull-down.

Chain of Nup358-min-GST, human Nup358 residues 2148-2240 (P49792 2148-2240): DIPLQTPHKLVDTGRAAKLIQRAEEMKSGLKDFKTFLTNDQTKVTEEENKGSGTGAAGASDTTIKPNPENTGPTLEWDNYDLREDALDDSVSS

B1: human Bicaudal D2 C-terminal cargo-binding domain, wild type (domain or fragment, UniProt Q8TD16 715-804, looked up)
chain: YENEKAMVTETMMKLRNELKALKEDAATFSSLRAMFATRCDEYITQLDEMQRQLAAAEDEKKTLNSLLRMAIQQKLALTQRLELLELDHE
B1: the binding result was “binds”.
